These results are taken from patent US6500940 (SALK INSTITUTE FOR BIOLOGICAL STUDIES, dated 2002).

The target in test [1] is human Fas (human) (UniProt P25445). Put plainly: cell-based or functional assay.
Test [2] addresses T1, human FADD (human, UniProt Q13158 1-208, limits assumed).
T1 construct: also called MORT-1
T1 sequence (looked up): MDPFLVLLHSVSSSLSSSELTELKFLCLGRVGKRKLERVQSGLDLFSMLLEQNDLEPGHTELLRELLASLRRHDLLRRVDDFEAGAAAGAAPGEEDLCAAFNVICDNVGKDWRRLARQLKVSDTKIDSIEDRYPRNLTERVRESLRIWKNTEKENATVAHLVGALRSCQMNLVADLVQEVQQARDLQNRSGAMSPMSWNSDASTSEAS
Put plainly: co-immunoprecipitation and immunoblot after transient transfection. The source says:
The interaction of LFG with components of the Fas signaling pathway was investigated. Fas and LFG can be co-immunoprecipitated following transient transfection.

Sequence of human Fas (human) (P25445 26-335): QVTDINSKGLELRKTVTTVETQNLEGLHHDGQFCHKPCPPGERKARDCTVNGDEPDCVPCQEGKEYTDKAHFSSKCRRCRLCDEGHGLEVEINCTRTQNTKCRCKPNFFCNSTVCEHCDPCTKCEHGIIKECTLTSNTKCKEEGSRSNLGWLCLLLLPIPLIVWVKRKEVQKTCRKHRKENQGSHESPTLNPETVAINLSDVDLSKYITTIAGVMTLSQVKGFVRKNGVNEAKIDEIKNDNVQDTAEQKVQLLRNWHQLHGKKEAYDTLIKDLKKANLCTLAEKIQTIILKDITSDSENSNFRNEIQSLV

For “mouse anti-human Fas agonistic antibody (CH11)”, the cell survival of HeLa cells 72 hr after treatment with CH11 in test [1] stood at 17%.

B1: amino-terminal myc epitope-tagged LFG (myc-LFG) (other, not shown: small tags and cut ends)
chain: MTRGKLSVANKAPGTEGQQQVHGEKKEAPAVPSAPPSYEEATSGEGMKAGAFPPAPTAVPLHPSWAYVDPSSSSSYDNGFPPETMSSSPLSAGMTKKVRRVFVRKVYTILLIQLLVTLAVVALFTFCDPCQGLCSGQPGWYWASYAVFFATYLTLACCSGPRRHFPWNLILLTVFTLSMAYLTGMLSSYYNTTSVLLCLGITALVCLSVTVFSFQTKFDFTSCQGVLFVLLMTLFFSGLILAILLPFQYVPWLHAVYAALGAGVFTLFLALDTQLLMGNRRHSLSPEEYIFGALNIYLDIIYIFTFFLQLFGTNRE
notes: Expressed from an expression vector by transient transfection (HeLa, 293 cells) and found by immunoprecipitation and immunoblot; also called lifeguard
With B1, the binding result in test [2] was “no binding”.
